Measured values taken from publication PMC2901902 (Nature, 2010).

Target: human DPF3b PHD12 (tandem PHD finger) (Homo sapiens, UniProt Q92784)
Assay: DPF3b PHD12 binding to modified histone peptides
Conditions: H3 peptide residues 1–20, versus H3K14ac

Sequence of human DPF3b PHD12 (tandem PHD finger) (Q92784 261-372): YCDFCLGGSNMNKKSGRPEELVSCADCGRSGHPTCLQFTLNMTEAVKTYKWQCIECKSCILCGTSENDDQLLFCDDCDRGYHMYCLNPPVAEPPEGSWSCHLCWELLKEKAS

reduction in affinity when H3 is not acetylated at K14: 4 fold
Substance: H3 peptide (residues 1–20): H3 peptide (residues 1–20), not acetylated at K14
